Columns and labels:
human 4-1BB = target: T1, human 4-1BB (human, UniProt Q07011 24-255); test: flow cytometry (FACS) on human 41BB transfected CHO cells
T1 construct: whole, on cells; also called human 41BB transfected CHO cells
Method: (§1) The tetra-specific GNC antibodies listed in TABLEs 3 and 4 were tested for binding to Chinese hamster ovary cells (CHO) cells stably expressing a full-length human ROR1. Antibodies were prepared at 2× final concentration and titrated 1:5 across 3 wells of a 96 well plate in 50 ul of PBS/2% FBS and then 5,000 ROR1-CHO cells in 50 ul PBS/2% FBS were added. This mixture was incubated for 30 minutes on ice, washed once with 200 ul PBS/2% FBS, and then the secondary antibody PE Goat anti-Human IgG Fc at 1:1000 dilution of stock was added, and this mixture was incubated for 30 minutes on ice. Cells were washed 2×200 ul PBS/2% FBS, resuspended in 50 ul PBS/2% FBS and analyzed on a BD LSRFORTESSA and the binding profile is shown in FIG. 5. All of the tetra-specific GNC antibodies except for the control SI-27E12 contain a 41BB binding domain, 460C3, 420H5, or 466F6 and bound to 41BB expressing CHO cells with varying intensity.

human PD-L1 = target: T2, human PD-L1 (human, UniProt Q9NZQ7 19-290); test: flow cytometry (FACS) on human PDL1 transfected CHO cells
T2 construct: whole, on cells; also called human PDL1 transfected CHO cells
T2 sequence (Q9NZQ7 19-290): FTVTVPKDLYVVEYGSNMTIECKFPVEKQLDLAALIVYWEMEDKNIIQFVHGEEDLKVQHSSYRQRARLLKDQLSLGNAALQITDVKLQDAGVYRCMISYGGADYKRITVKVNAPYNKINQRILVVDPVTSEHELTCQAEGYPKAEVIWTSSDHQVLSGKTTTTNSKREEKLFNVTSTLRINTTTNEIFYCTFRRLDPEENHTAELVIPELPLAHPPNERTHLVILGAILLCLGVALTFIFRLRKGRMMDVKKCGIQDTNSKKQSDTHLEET

human ROR1 = target: T3, human ROR1 (human, UniProt Q01973 30-937); test: flow cytometry (FACS) on CHO cells stably expressing full-length human ROR1
T3 construct: whole, on cells; also called full-length human ROR1 on CHO cells; ROR1-CHO
T3 sequence (Q01973 30-937): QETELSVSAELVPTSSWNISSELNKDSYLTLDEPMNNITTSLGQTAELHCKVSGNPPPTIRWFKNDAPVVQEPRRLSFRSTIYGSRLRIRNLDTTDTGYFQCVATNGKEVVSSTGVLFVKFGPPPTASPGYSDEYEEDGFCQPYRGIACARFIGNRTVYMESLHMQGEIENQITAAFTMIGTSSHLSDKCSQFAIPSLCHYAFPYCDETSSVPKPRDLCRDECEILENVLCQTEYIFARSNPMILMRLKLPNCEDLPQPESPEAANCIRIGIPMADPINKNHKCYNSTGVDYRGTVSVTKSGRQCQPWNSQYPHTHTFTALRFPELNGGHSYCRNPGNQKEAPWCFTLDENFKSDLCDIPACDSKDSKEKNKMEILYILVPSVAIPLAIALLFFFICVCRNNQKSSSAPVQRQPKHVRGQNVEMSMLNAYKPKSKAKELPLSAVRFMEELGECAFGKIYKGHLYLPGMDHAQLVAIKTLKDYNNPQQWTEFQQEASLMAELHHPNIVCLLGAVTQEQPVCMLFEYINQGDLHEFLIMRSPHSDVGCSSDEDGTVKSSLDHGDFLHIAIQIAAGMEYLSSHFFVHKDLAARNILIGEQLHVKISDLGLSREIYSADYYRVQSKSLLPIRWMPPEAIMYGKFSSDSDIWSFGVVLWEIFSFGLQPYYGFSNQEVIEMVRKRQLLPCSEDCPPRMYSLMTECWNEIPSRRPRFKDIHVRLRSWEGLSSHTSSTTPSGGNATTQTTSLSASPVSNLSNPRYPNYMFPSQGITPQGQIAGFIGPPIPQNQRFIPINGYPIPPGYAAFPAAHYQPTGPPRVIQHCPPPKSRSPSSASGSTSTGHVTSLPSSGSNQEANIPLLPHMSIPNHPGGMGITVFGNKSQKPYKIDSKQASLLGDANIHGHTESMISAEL
Method: as §1, with “4.” for “5. All of the tetra-specific GNC antibodies except for the control SI-27E12 contain a 41BB binding domain, 460C3, 420H5, or 466F6 and bound to 41BB expressing CHO cells with varying intensity.”

Measured: binding result

T1 sequence (Q07011 24-255): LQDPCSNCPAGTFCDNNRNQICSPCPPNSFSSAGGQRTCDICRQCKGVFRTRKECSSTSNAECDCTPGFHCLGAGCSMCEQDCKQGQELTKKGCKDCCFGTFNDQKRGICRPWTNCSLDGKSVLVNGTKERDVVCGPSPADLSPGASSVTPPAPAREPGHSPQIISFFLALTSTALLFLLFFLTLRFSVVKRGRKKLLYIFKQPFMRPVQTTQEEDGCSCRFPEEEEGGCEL

B1: SI-35E18 (460C3-L1H1-scFv x PL230C6-Fab x 323H7-H4L1-scFv x 284A10-H1L1-scFv) (antibody)
heavy: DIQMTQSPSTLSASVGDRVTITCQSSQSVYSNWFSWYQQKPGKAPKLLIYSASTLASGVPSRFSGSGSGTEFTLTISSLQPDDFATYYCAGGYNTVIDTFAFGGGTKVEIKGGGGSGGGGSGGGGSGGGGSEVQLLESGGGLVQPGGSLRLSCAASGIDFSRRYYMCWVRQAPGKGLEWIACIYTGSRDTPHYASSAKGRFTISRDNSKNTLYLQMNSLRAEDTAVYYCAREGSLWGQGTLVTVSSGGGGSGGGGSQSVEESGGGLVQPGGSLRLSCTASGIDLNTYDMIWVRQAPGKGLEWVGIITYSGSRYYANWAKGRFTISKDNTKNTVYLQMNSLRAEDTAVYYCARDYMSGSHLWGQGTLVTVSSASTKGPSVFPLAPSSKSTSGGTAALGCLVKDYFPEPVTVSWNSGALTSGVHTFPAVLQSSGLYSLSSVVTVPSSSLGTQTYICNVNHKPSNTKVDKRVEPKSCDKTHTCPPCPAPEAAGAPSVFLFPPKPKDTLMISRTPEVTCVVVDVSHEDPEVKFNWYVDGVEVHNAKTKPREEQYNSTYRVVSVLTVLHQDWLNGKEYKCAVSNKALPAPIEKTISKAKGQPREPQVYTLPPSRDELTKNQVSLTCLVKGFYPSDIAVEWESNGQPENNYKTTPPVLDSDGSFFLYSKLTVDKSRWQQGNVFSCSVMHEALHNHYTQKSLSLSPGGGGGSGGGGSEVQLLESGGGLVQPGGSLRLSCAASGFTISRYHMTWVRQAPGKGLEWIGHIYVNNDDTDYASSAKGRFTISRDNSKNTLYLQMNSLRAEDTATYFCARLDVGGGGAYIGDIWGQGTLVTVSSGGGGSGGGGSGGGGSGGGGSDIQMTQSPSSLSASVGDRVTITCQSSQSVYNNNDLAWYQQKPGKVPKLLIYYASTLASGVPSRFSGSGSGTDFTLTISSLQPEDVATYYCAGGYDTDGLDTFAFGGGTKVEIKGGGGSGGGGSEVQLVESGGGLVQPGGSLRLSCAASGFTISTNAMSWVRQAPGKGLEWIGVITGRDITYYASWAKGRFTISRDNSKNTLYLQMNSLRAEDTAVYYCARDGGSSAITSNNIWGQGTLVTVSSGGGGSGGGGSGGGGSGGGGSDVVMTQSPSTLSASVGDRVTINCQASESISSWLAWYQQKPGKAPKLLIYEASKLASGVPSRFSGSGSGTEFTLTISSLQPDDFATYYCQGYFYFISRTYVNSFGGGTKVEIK
light: AYDMTQSPSSVSASVGDRVTIKCQASEDIYSFLAWYQQKPGKAPKLLIHSASSLASGVPSRFSGSGSGTDFTLTISSLQPEDFATYYCQQGYGKNNVDNAFGGGTKVEIKRTVAAPSVFIFPPSDEQLKSGTASVVCLLNNFYPREAKVQWKVDNALQSGNSQESVTEQDSKDSTYSLSSTLTLSKADYEKHKVYACEVTHQGLSSPVTKSFNRGEC
notes: Tetra-specific (4-1BB x PD-L1 x ROR1 x CD3) antibody with human IgG1 null2 Fc; also called tetra-specific GNC antibody
binds: human 4-1BB | human PD-L1 | human ROR1

B2: SI-35E20 (466F6-L5H2-scFv x PL230C6-Fab x 323H7-H4L1-scFv x 284A10-H1L1-scFv) (antibody)
heavy: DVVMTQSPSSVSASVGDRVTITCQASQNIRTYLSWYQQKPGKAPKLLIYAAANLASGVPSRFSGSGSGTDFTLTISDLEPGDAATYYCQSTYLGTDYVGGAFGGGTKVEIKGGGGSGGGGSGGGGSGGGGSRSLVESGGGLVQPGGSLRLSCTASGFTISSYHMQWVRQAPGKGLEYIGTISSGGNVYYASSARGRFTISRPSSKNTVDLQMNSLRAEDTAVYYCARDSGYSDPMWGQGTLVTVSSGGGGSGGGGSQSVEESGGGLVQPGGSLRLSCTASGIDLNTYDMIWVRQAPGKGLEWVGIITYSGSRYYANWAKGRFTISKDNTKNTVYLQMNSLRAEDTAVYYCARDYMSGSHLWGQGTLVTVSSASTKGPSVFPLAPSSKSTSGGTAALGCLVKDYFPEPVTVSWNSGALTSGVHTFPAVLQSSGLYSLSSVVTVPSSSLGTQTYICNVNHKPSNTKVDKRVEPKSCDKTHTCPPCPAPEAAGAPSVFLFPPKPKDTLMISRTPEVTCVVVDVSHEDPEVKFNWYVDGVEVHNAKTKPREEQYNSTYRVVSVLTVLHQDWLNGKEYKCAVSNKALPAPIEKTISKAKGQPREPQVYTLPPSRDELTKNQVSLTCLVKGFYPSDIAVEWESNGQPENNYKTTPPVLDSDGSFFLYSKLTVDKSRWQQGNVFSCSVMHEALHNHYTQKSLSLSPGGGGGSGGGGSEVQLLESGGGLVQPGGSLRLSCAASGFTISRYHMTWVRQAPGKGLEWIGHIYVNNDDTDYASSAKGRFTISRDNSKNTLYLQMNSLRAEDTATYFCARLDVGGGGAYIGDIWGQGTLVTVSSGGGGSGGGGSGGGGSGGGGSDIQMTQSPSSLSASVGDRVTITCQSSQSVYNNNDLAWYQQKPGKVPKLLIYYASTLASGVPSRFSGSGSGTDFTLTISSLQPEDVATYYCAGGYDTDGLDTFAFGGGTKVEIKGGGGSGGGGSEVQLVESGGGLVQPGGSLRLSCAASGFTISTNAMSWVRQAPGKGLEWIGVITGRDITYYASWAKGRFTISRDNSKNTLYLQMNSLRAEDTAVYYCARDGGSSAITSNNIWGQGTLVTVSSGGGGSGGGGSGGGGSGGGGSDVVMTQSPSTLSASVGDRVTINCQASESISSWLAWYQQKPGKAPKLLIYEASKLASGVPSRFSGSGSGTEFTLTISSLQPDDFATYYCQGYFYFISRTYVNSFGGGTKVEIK
light: B1 light
notes: as for B1
binds: human 4-1BB | human PD-L1 | human ROR1
